Earlier results in publication PMC9739296.

Biological target: DR4 (Homo sapiens) (UniProt O00220)
Chain of UniProt O00220 (O00220 24-468): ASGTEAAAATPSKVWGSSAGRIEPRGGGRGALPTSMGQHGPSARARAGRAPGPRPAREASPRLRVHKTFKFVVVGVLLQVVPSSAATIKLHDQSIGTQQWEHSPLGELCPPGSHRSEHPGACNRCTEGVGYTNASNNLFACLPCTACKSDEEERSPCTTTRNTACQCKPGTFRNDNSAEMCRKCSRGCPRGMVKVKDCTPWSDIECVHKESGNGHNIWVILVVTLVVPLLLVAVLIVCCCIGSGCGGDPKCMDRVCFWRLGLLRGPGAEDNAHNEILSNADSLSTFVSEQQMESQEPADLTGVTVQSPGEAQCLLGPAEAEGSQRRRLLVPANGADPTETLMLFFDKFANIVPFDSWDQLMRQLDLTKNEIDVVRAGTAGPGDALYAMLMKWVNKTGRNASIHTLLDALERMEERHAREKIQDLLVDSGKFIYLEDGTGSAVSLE

Kd: 70 nM
Substance: TRAIL (from UniProt P50591)
